Results on 1 molecule are retold here after article PMC10939407 (Nucleic Acids Research, 2023).

The target in the assay is MBP-DHX15-His10 (human, UniProt O43143 1-795). As to the kind of experiment: pull-down.
MBP-DHX15-His10, sequence (O43143 whole entry): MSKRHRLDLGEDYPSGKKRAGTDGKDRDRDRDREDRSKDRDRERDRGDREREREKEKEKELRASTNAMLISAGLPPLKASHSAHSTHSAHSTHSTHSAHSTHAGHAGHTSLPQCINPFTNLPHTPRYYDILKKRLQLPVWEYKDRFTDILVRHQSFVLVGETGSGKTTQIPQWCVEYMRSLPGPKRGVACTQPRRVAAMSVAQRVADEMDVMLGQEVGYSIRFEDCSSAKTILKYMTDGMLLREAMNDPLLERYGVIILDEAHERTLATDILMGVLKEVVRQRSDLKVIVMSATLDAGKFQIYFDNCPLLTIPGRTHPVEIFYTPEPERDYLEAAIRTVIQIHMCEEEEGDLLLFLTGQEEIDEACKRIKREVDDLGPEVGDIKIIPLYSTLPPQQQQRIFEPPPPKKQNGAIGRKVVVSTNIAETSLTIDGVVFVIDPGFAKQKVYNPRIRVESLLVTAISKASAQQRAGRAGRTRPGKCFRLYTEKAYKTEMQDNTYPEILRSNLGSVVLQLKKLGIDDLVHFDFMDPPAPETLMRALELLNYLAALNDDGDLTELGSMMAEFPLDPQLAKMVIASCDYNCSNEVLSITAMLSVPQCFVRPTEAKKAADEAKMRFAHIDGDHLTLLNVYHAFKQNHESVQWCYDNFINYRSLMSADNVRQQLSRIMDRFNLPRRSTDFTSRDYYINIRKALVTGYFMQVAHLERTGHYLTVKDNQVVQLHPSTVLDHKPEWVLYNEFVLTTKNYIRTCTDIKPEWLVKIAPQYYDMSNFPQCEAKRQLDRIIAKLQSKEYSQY

Turning to GMKFAEEQLLKHGWTQGKGLGRKENGITQALRVTLKQDTHGVGHDPA (domain or fragment) [ZZ-GPATCH4GP-His7 (G-patch domain of GPATCH4, amino acids 11 to 57)], the binding result is recorded as “binds”.
